Test results from the RNAGym collection of RNA variant scans (doi:10.1093/nar/gkz1192).

B1: CPEB3 Ribozyme (parent)
chain: UAACAGGGGGCCACAGCAGAAGCGUUCACGUCGCAGCCCCUGUCAGAUUCUGGUGAAUCUGCGAAUUCUGCUGUAUAUCUC

Variants of: B1
Assay: self-cleavage, relative activity (ratio to wild type); higher = more cleavage; in vitro, sequencing
Method in brief: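 After error-prone PCR and barcoding, CPEB3 ribozyme mutant libraries were transcribed with T7 RNA polymerase at 37°C for 5 hours, then given 15 min with DNase I before an EDTA stop, and they cleaved during both steps. Reverse transcription with template switching preceded Illumina sequencing. Relative activity divides a variant's cleaved/total read fraction by the unmutated ribozyme's. At least 5 reads were required per variant, and three batches were averaged.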

Variant | self-cleavage
U54G G73A | 1.17
U54G U58A | 0.2
U54G U58C | 0.39
U54G U60A | 0.37
U54G U60C | 0.44
U54G U60G | 0.42
U54G U66C | 0.28
U54G U67A | 0.57
U54G U67C | 0.32
U54G U67G | 0.14
U54G U69A | 0.62
U54G U69C | 0.37
U54G U72A | 0.41
U54G U72C | 1.16
U54G U72G | 0.93
U54G U74C | 0.92
U54G U76C | 0.98
U54G U78A | 1
U54G U78C | 0.68
U54G U80C | 0.67
G55A | 0.84
G55A A56G | 0.8
G55A A56U | 0.84
G55A A57G | 0.46

Variant | self-cleavage
G55A A57U | 0.54
G55A A64G | 0.61
G55A A64U | 0.25
G55A A65U | 0.27
G55A A75G | 0.4
G55A A77G | 0.96
G55A G61A | 0.39
G55A U58C | 0.27
G55A U60A | 0.44
G55A U60C | 0.25
G55A U66C | 0.22
G55A U67A | 0.28
G55A U67C | 0.22
G55A U69A | 0.39
G55A U69C | 0.28
G55A U69G | 0.34
G55A U72A | 0.53
G55A U72C | 0.83
G55A U74A | 1.18
G55A U78A | 1
G55A U78C | 0.75
G55A U80A | 1.15
G55A U80C | 1.09
G55C | 0.94

Variant | self-cleavage
G55C A57G | 0.37
G55C A64G | 0.72
G55C A64U | 0.23
G55C A77G | 1.04
G55C C62U | 0.22
G55C G70C | 0.17
G55C U67A | 0.44
G55C U69C | 0.44
G55C U72A | 0.4
G55C U74G | 1.13
G55C U78A | 0.97
G55C U78C | 0.94
G55C U80A | 0.7
G55U | 1.02
G55U A56U | 0.7
G55U A65G | 0.24
G55U A65U | 0.31
G55U A75G | 0.92
G55U C62U | 0.23
G55U C79U | 1.16
G55U C81U | 0.6
G55U G61A | 0.6
G55U U58A | 0.25
G55U U60A | 0.27

Variant | self-cleavage
G55U U60C | 0.27
G55U U66C | 0.49
G55U U67C | 0.21
G55U U69C | 0.48
G55U U72C | 0.78
G55U U74C | 1.35
G55U U78C | 0.75
G55U U80A | 1.11
G55U U80C | 1.06
A56C | 0.63
A56C A57G | 0.5
A56C A64G | 0.49
A56C A64U | 0.18
A56C A65G | 0.22
A56C A75G | 0.29
A56C C62A | 0.24
A56C U58C | 0.14
A56C U60C | 0.18
A56C U66C | 0.32
A56C U69C | 0.12
A56C U72A | 0.18
A56C U72C | 0.52
A56C U76A | 0.71
A56C U78C | 0.49

Variant | self-cleavage
A56C U80C | 0.93
A56G | 0.91
A56G A57C | 0.19
A56G A57G | 0.42
A56G A57U | 0.37
A56G A64C | 0.46
A56G A64G | 0.8
A56G A64U | 0.3
A56G A65C | 0.15
A56G A65G | 0.32
A56G A65U | 0.25
A56G A75C | 1.12
A56G A75G | 0.64
A56G A75U | 0.95
A56G A77C | 0.79
A56G A77G | 0.77
A56G A77U | 0.99
A56G C59A | 0.23
A56G C59G | 0.21
A56G C59U | 0.52
A56G C62A | 0.23
A56G C62G | 0.2
A56G C62U | 0.31
A56G C68A | 0.32

Variant | self-cleavage
A56G C68U | 0.77
A56G C71U | 0.51
A56G C79A | 1.18
A56G C79G | 1.16
A56G C81A | 0.96
A56G C81G | 1.22
A56G C81U | 1.13
A56G G61A | 0.63
A56G G61U | 0.62
A56G G63A | 0.97
A56G G63U | 1.03
A56G G70A | 0.49
A56G G70C | 0.21
A56G G70U | 0.25
A56G G73C | 1.26
A56G G73U | 1.15
A56G U58A | 0.32
A56G U58C | 0.38
A56G U58G | 0.22
A56G U60A | 0.41
A56G U60C | 0.42
A56G U60G | 0.34
A56G U66A | 0.44
A56G U66C | 0.29

Variant | self-cleavage
A56G U66G | 0.38
A56G U67A | 0.46
A56G U67C | 0.3
A56G U69A | 0.5
A56G U69C | 0.43
A56G U69G | 0.54
A56G U72A | 0.64
A56G U72C | 0.93
A56G U72G | 0.63
A56G U74A | 1.11
A56G U74C | 1.12
A56G U76A | 1.07
A56G U76C | 0.85
A56G U78A | 0.91
A56G U78C | 0.73
A56G U78G | 0.96
A56G U80A | 0.92
A56G U80C | 0.84
A56G U80G | 0.99
A56U | 0.74
A56U A57G | 0.47
A56U A57U | 0.59
A56U A64C | 0.19
